Measurements from IntAct's records for PubMed 16888623.

B1: Mucin-1 (Homo sapiens), P15941-12 (parent)
chain: MTPGTQSPFFLLLLLTVLTATTAPKPATVVTGSGHASSTPGGEKETSATQRSSVPSSTEKNAFNSSLEDPSTDYYQELQRDISEMAVCQCRRKNYGQLDIFPARDTYHPMSEYPTYHTHGRYVPPSSTDRSPYEKVSAGNGGSSLSYTNPAVAATSANL

Variants of: B1
Conditions: with abl1_human ABL1, P00519
Sequence of abl1_human ABL1, P00519 (P00519 whole entry): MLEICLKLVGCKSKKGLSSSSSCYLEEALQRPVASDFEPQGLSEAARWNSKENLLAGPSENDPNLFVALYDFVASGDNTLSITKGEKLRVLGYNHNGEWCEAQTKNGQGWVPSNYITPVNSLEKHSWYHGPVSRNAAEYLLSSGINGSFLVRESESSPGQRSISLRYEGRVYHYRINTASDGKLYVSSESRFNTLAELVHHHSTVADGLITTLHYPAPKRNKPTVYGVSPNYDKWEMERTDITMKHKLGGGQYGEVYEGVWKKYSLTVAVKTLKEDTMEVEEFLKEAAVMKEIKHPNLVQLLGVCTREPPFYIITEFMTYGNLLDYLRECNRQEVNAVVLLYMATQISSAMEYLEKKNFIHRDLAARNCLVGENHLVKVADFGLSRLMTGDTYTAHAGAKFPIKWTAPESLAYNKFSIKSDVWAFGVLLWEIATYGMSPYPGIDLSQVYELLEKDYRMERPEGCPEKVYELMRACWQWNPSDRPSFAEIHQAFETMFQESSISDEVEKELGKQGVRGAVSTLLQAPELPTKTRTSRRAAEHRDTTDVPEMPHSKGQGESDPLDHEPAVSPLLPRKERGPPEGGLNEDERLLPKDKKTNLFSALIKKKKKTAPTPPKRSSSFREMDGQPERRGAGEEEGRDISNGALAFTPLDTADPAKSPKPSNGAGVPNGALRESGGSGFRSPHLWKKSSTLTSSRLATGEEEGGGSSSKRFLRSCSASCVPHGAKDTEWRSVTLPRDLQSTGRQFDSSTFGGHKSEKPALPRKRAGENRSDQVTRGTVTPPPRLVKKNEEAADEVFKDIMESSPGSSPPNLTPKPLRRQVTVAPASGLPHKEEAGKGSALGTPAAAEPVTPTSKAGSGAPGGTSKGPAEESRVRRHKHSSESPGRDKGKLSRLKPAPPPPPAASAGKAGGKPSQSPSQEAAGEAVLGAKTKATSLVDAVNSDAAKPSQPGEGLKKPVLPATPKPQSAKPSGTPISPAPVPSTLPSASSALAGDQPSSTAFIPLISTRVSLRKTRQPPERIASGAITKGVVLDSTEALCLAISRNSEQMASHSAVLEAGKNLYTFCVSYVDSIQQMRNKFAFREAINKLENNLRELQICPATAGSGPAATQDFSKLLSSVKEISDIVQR

| effect of a mutation on the interaction | Variant |
| --- | --- |
| disrupting interaction | MTPGTQSPFFLLLLLTVLTATTAPKPATVVTGSGHASSTPGGEKETSATQRSSVPSSTEKNAFNSSLEDPSTDYYQELQRDISEMAVCQCRRKNYGQLDIFPARDTYHPMSEYPTYHTHGRYVPPSSTDRSPYEKVSAGNGGSSLSFTNPAVAATSANL [Y147F] |
